Test results taken from PMC10397247.
Blank lines part the entries; values can stand above or below the binder they belong to.

Columns and labels:
Assay in all cases: two-hybrid library CCNG1;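 further: natural log of median RNA to DNA barcode read ratio; higher means stronger binding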
4H344-bH = target: T1, 4H344-bH
T1 chain: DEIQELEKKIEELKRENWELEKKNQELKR

4H2745-bH = target: T2, 4H2745-bH
T2 chain: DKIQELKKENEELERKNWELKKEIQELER

4H363-bH = target: T3, 4H363-bH
T3 chain: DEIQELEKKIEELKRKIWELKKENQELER

4H3961-bH = target: T4, 4H3961-bH
T4 chain: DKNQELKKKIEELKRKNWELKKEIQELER

4H470-bH = target: T5, 4H470-bH
T5 chain: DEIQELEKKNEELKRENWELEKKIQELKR

4H3907-bH = target: T6, 4H3907-bH
T6 chain: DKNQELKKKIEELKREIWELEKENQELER

4H2944-bH = target: T7, 4H2944-bH
T7 chain: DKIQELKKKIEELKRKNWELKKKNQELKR

4H342-bH = target: T8, 4H342-bH
T8 chain: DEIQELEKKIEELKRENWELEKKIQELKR

4H491-bH = target: T9, 4H491-bH
T9 chain: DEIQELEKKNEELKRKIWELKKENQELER

4H48-bH = target: T10, 4H48-bH
T10 chain: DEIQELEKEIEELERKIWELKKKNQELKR

4H3112-bN = target: T11, 4H3112-bN
T11 chain: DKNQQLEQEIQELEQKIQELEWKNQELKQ

4H4073-bN = target: T12, 4H4073-bN
T12 chain: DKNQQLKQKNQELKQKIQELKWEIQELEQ

4H683-bN = target: T13, 4H683-bN
T13 chain: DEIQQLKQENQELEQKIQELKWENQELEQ

4H3427-bN = target: T14, 4H3427-bN
T14 chain: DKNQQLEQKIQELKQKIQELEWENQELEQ

4H1831-bN = target: T15, 4H1831-bN
T15 chain: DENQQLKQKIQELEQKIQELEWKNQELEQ

4H346-bN = target: T16, 4H346-bN
T16 chain: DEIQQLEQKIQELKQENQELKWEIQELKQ

4H575-bN = target: T17, 4H575-bN
T17 chain: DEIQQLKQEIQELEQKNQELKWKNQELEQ

4H780-bN = target: T18, 4H780-bN
T18 chain: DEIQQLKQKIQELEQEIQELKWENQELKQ

4H3010-bN = target: T19, 4H3010-bN
T19 chain: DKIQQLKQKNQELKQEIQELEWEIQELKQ

4H170-bN = target: T20, 4H170-bN
T20 chain: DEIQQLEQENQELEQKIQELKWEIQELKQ

4H2586-bN = target: T21, 4H2586-bN
T21 chain: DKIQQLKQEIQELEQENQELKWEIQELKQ

4H855-bN = target: T22, 4H855-bN
T22 chain: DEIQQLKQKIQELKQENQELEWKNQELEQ

4H2673-bN = target: T23, 4H2673-bN
T23 chain: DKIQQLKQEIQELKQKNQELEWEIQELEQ

4H457-bN = target: T24, 4H457-bN
T24 chain: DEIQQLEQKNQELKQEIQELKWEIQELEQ

4H968-bN = target: T25, 4H968-bN
T25 chain: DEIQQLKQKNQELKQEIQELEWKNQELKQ

4H754-bN = target: T26, 4H754-bN
T26 chain: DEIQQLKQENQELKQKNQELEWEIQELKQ

4H797-bN = target: T27, 4H797-bN
T27 chain: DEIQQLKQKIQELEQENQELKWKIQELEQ

4H3926-bN = target: T28, 4H3926-bN
T28 chain: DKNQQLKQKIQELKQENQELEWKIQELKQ

4H953-bN = target: T29, 4H953-bN
T29 chain: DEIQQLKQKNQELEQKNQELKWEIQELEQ

4H2702-bN = target: T30, 4H2702-bN
T30 chain: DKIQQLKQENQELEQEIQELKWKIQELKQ

4H2627-bN = target: T31, 4H2627-bN
T31 chain: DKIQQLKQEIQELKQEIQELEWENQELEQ

4H918-bN = target: T32, 4H918-bN
T32 chain: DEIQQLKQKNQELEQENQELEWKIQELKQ

4H591-bA = target: T33, 4H591-bA
T33 chain: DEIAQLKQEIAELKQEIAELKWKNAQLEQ

4H906-bA = target: T34, 4H906-bA
T34 chain: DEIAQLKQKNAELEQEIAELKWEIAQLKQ

P1A-bH = target: T35, P1A-bH
T35 chain: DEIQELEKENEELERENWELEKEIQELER

4H626-bA = target: T36, 4H626-bA
T36 chain: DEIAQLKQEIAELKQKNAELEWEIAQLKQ

4H780-bA = target: T37, 4H780-bA
T37 chain: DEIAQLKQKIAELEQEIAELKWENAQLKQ

4H2586-bA = target: T38, 4H2586-bA
T38 chain: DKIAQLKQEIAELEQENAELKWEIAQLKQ

4H2702-bA = target: T39, 4H2702-bA
T39 chain: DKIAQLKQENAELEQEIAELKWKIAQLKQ

4H918-bA = target: T40, 4H918-bA
T40 chain: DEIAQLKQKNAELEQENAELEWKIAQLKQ

4H855-bA = target: T41, 4H855-bA
T41 chain: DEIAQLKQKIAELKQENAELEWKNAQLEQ

4H575-bA = target: T42, 4H575-bA
T42 chain: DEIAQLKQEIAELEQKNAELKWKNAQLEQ

4H968-bA = target: T43, 4H968-bA
T43 chain: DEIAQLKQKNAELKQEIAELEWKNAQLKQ

4H953-bA = target: T44, 4H953-bA
T44 chain: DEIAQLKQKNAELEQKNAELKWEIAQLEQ

4H170-bA = target: T45, 4H170-bA
T45 chain: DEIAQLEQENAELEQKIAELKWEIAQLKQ

4H3112-bA = target: T46, 4H3112-bA
T46 chain: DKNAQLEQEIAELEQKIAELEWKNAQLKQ

4H3427-bA = target: T47, 4H3427-bA
T47 chain: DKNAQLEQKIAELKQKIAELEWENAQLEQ

4H754-bA = target: T48, 4H754-bA
T48 chain: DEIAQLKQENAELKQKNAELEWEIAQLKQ

4H457-bA = target: T49, 4H457-bA
T49 chain: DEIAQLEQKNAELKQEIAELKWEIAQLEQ

4H3926-bA = target: T50, 4H3926-bA
T50 chain: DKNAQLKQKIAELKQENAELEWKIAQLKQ

4H797-bA = target: T51, 4H797-bA
T51 chain: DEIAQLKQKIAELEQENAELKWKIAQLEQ

4H3010-bA = target: T52, 4H3010-bA
T52 chain: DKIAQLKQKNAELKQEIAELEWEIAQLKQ

4H2673-bA = target: T53, 4H2673-bA
T53 chain: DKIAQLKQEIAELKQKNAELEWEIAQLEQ

4H683-bA = target: T54, 4H683-bA
T54 chain: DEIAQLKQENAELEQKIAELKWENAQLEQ

4H4073-bA = target: T55, 4H4073-bA
T55 chain: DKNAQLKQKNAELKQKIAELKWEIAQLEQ

4H1831-bA = target: T56, 4H1831-bA
T56 chain: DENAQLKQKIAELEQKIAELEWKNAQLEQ

4H346-bA = target: T57, 4H346-bA
T57 chain: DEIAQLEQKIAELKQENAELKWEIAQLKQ

4H2627-bA = target: T58, 4H2627-bA
T58 chain: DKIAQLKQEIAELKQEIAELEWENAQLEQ

interaction score (4H344-bH): -0.814
interaction score (4H2745-bH): -0.337
interaction score (4H363-bH): -0.763
interaction score (4H3961-bH): -0.688
interaction score (4H470-bH): 1.22
interaction score (4H3907-bH): -0.566
Binder: DKIQELKKENEELERKNWELKKEIQELER [4H2745-bH]

interaction score (4H2944-bH): -0.179
interaction score (4H342-bH): 0.551
interaction score (4H491-bH): -0.773
interaction score (4H48-bH): 0.638
Binder: DKIQELKKKIEELKRKNWELKKKNQELKR [4H2944-bH]

interaction score (4H591-bA): 1.45
interaction score (4H906-bA): -1.23
interaction score (P1A-bH): 0.0694
interaction score (4H626-bA): -1.82
Binder: DEIAQLKQEIAELKQEIAELKWKNAQLEQ [4H591-bA]

Further lines, the binder ahead of its results:

Binder: DEIQQLEQENQELEQKIQELKWEIQELKQ [4H170-bN]
interaction score (4H3112-bN): 0.507
interaction score (4H4073-bN): 1.61
interaction score (4H683-bN): -0.329
interaction score (4H3427-bN): -0.458
interaction score (4H1831-bN): -1.26
interaction score (4H346-bN): -0.772
interaction score (4H575-bN): 0.401
interaction score (4H780-bN): -0.283
interaction score (4H3010-bN): 2.14
interaction score (4H170-bN): 0.334
interaction score (4H2586-bN): -1.86
interaction score (4H855-bN): 0.202
interaction score (4H2673-bN): -0.742
interaction score (4H457-bN): -0.694
interaction score (4H968-bN): 1.15
interaction score (4H754-bN): -0.104
interaction score (4H797-bN): -0.668
interaction score (4H3926-bN): 0.153
interaction score (4H953-bN): -1.71
interaction score (4H2702-bN): 1.32
interaction score (4H2627-bN): -1.42
interaction score (4H918-bN): -0.811

Binder: DEIAQLEQENAELEQKIAELKWEIAQLKQ [4H170-bA]
interaction score (4H780-bA): -0.413
interaction score (4H2586-bA): -0.588
interaction score (4H2702-bA): 2.21
interaction score (4H918-bA): 0.927
interaction score (4H855-bA): -0.225
interaction score (4H575-bA): -0.482
interaction score (4H968-bA): 2.27
interaction score (4H953-bA): 0.253
interaction score (4H170-bA): 0.744
interaction score (4H3112-bA): -0.374
interaction score (4H3427-bA): 0.122
interaction score (4H754-bA): -0.923
interaction score (4H457-bA): 1.56
interaction score (4H3926-bA): 1.67
interaction score (4H797-bA): -0.00525
interaction score (4H3010-bA): 2.15
interaction score (4H2673-bA): 1.01
interaction score (4H683-bA): -0.581
interaction score (4H4073-bA): 1.89
interaction score (4H1831-bA): -1.05
interaction score (4H346-bA): -1.19
interaction score (4H2627-bA): 1.23
